Source: patent US20170305975A1 (PROCLARA BIOSCIENCES, published 2017)
Positions count from the first letter of the chain named. Like-named read-outs stand apart in the source and are kept apart here.

Legend:
[1] = target: T1, amyloid-β 1-42 fibers (fAβ42) (human, UniProt P05067 672-713); assay: SPR on Aβ fibrils, 25° C.
T1 construct: domain: amyloid-β 1-42; also called Aβ fibrils; Aβ fibers

tau fibers (ftau) = assay: SPR, Construct 4 on ftau
[2] = target: T1, amyloid-β 1-42 fibers (fAβ42); assay: SPR, Aβ42 fibers immobilized on a CM3 surface, about 2 µM analyte at 5 µl/min
[3] = target: T1, amyloid-β 1-42 fibers (fAβ42); assay: cell-based or functional assay
[4] = target: T1, amyloid-β 1-42 fibers (fAβ42); assay: SPR on Aβ fibrils, analyte preheated at 37° C.
[5] = target: T1, amyloid-β 1-42 fibers (fAβ42); assay: SPR, 4 µM rs-g3p(N1N2) on Aβ fibrils
[6] = target: T1, amyloid-β 1-42 fibers (fAβ42); assay: competition with labeled M13 for binding to Aβ, 45 minutes at 37 °C; phage with or without pre-activation at 50 °C for 1.5 hours
[7] = target: T1, amyloid-β 1-42 fibers (fAβ42); assay: SPR on Aβ fibrils
[8] = target: T1, amyloid-β 1-42 fibers (fAβ42)
[9] = target: T1, amyloid-β 1-42 fibers (fAβ42); assay: SPR, 10^14 phage/mL over immobilized fAβ
[10] = target: T1, amyloid-β 1-42 fibers (fAβ42); assay: SPR, calculated from the data of FIG. 3A
[11] = target: T1, amyloid-β 1-42 fibers (fAβ42); assay: competition with M13-Alexa488 for fAβ, fiber sedimentation assay

T1 sequence (P05067 672-713 limits assumed): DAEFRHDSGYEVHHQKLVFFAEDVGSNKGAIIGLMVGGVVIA

B1: rs-g3p(N1N2)-hIgG4-Fc fusion protein (Construct 4) (Fc fusion)
chain: MAETVESCLAKPHTENSFTNVWKDDKTLDRYANYEGCLWNATGVVVCTGDETQCYGTWVPIGLAIPENEGGGSEGGGSEGGGSEGGGTKPPEYGDTPIPGYTYINPLDGTYPPGTEQNPANPNPSLEESQPLNTFMFQNNRFRNRQGALTVYTGTVTQGTDPVKTYYQYTPVSSKAMYDAYWNGKFRDCAFHSGFNEDPFVCEYQGQSSDLPQPPVNAGGGSGGGSGGGSEGGGSEGGGSEGGGSEGGGSGGGSGSGAMVRSPPCPSCPAPEFLGGPSVFLFPPKPKDTLMISRTPEVTCVVVDVSQEDPEVQFNWYVDGVEVHNAKTKPREEQFNSTYRVVSVLTVLHQDWLNGKEYKCKVSNKGLPSSIEKTISKAKGQPREPQVYTLPPSQEEMTKNQVSLTCLVKGFYPSDIAVEWESNGQPENNYKTTPPVLDSDGSFFLYSRLTVDKSRWQEGNVFSCSVMHEALHNHYTQKSLSLSPGK
notes: also called rs-g3p(N1N2)-Ig fusion; bivalent rs-g3p(N1N2)-Ig fusion
Kd [1]: 7.32 nM
koff [1]: 0.000128 s⁻¹
kon [1]: 17500 M⁻¹ s⁻¹
Kd (tau fibers (ftau)): 62.9 nM

B2: rs-g3p(N1N2)-hIgG4-Fc fusion protein (Construct 5) (Fc fusion)
chain: B1 chain with V156F
Kd [1]: 10.9 nM
koff [1]: 0.000166 s⁻¹
kon [1]: 15200 M⁻¹ s⁻¹

B3: recombinant soluble N1N2 fragment of g3p, rs-g3p(N1N2) (Construct 3) (other)
chain: MAETVESCLAKSHTENSFTNVWKDDKTLDRYANYEGCLWNATGVVVCTGDETQCYGTWVPIGLAIPENEGGGSEGGGSEGGGSEGGGTKPPEYGDTPIPGYTYINPLDGTYPPGTEQNPANPNPSLEESQPLNTFMFQNNRFRNRQGALTVYTGTVTQGTDPVKTYYQYTPVSSKAMYDAYWNGKFRDCAFHSGFNEDLFVCEYQGQSSDLPQPPVNAPSGHHHHHH
notes: also called monomer; monomeric g3p
Kd [2]: ~150 nM
IC50 of inhibition of Aβ42 fiber formation, ThT fluorescence (10 µM Aβ42 monomers, 37° C., 3 days) [3]: ~20 nM
Kd [4]: 50 nM
koff [4]: 0.0002 s⁻¹
kon [4]: 4100 M⁻¹ s⁻¹
Kd [1]: 150 nM
koff [1]: 0.00024 s⁻¹
kon [1]: 1500 M⁻¹ s⁻¹
Kd [5]: ~160 nM

B4: phage fd (wild type) (other)
chain: AETVESCLAKPHTENSFTNVWKDDKTLDRYANYEGCLWNATGVVVCTGDETQCYGTWVPIGLAIPENEGGGSEGGGSEGGGSEGGGTKPPEYGDTPIPGYTYINPLDGTYPPGTEQNPANPNPSLEESQPLNTFMFQNNRFRNRQGALTVYTGTVTQGTDPVKTYYQYTPVSSKAMYDAYWNGKFRDCAFHSGFNEDPFVCEYQGQSSDLPQPPVNAGGGSGGGSGGGSEGGGSEGGGSEGGGSEGGGSGGGSGSGDFDYEKMANANKGAMTENADENALQSDAKGKLDSVATDYGAAIDGFIGDVSGLANGNGATGDFAGSNSQMAQVGDGDNSPLMNNFRQYLPSLPQSVECRPYVFGAGKPYEFSIDCDKINLFRGVFAFLLYVATFMYVFSTFANILRNKES
binding result [6]: binds

B5: M13 phage (Construct 1) (other)
chain: B4 chain with Y357F
Kd [7]: 3.59 nM
koff [7]: 9.2e-06 s⁻¹
kon [7]: 2600 M⁻¹ s⁻¹
Kd [8]: ~7 nM
Kd [9]: ~4 nM

B6: M13 phage (construct not stated) (other)
chain: B4 chain with Y357F, G360S
notes: also called wild type M13; labeled M13
Kd [10]: 3.59 nM

B7: If1N1N2 g3p (without Fc domain) (other)
chain: ATTDAECLSKPAFDGTLSNVWKEGDSRYANFENCIYELSGIGIGYDNDTSWNGHWTPVRAADGSGNGGDDNSSGGGSNGDSGNNSTPDTVTPGQTVNLPSDLSTLSIPANVVKSDSIGSQFSLYTNASCTMCSGYYLSNNADSIAIANITETVKADYNQPDMWFEQTDSDGNHVKILQNSYKAVSYNVESKQSDVNNPTYINYSYSVNVKQVSYDTSNVCIMNWETFQNKCDASRAVLITDTVTPSYSRNITIQSNINYQGSNGSGGSGGSGGSG
fold better binding than M13 N1N2 g3p [11]: ~4 fold
